Source: patent US20130071366A1 (CANCER RESEARCH TECHNOLOGY, published 2013)

How the values were obtained:
[1] = target: T1, Insulin-like Growth Factor II (IGF-II), recombinant human (human, UniProt P01344 25-91, biotinyl group (site not stated) when immobilised for SPR; not biotinylated as SPR analyte or in ITC); test: SPR, biotinyl-IGF-II immobilised
T1 construct: mature; Bought as Biotinyl-IGF-II from GroPep for immobilisation on streptavidin chips; also called IGF2; Biotinyl-IGF-II
Description: (§1) The affinity of versions of Fc-tagged domain 11 fusion proteins, and domain 11 constructs, for IGF-II were compared using surface plasmon resonance (BIAcore 3000). Attempts were made to immobilize Fc-tagged domain 11 proteins upon a sensor chip surface (CM5 and CM5-proteinA) but we encountered similar problems as described above with immobilised monomeric domain 11. Instead, immobilisation of biotinylated IGF-I and IGF-II on separate flow cells of a streptavidin coated sensor chip (BIAcore) generated reproducible sensorgram profiles when Fc-tagged and untagged domain 11 proteins were passed over the surface as analytes. The Fc-tagged domain 11 kinetic data performed in triplicate generated sensorgrams that were analyzed using a bivalent analyte model. […] Both Fc-tagged proteins appeared to have reduced off-rates compared to the untagged monomers.

[2] = target: T1, Insulin-like Growth Factor II (IGF-II), …; test: SPR, biotinyl-IGF-II immobilised, bivalent analyte model
Description: as §1

T1 sequence (P01344 25-91): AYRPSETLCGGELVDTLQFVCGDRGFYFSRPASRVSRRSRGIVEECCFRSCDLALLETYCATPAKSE

B1: Fc-tagged enhanced mutant IGF2R domain 11 (11^E1544K-Fc) (Fc fusion)
chain: NEHDDCQVTNPSTGHLFDLSSLSGRAGFTAAYSKKGLVYMSICGENENCPPGVGACFGQTRISVGKANKRLRYVDQVLQLVYKDGSPCPSKSGLSYKSVISFVCRPEAGPTNRPMLISLDKQTCTLFFSWHTPLACEQAT
modifications: N-glycosylated with Man3GlcNAc2 (Drosophila cells)
notes: Homodimer, secreted from Drosophila D.Mel-2 cells; not shown: human IgG1 Fc domain, amplified from IMAGE clone 4851063 (ATCC-6878978)
With B1 the “RU response relative to 11-Fc at equal concentrations” value [1] was ~2 fold vs 11-Fc and the “molar affinity relative to 11-Fc” value [2] was ~2 fold vs 11-Fc.
